Tests used:
R/R DLBCL = conditions: cited from earlier work
patients with R/R DLBCL = experiment: Treatment duration, modification, and exposure; format: in vivo
Experimental: CC‐122 hydrochloride, referred to here as CC‐122, as an active pharmaceutical ingredient in capsule (AIC) formulation, was administered orally once daily (QD). An alternate intermittent schedule of CC‐122 QD for five of every seven consecutive days (5/7), which improved tolerability and reduced the frequency and severity of neutropenia in a study of CC‐122 monotherapy in DLBCL, was also explored. CC‐292 was administered orally twice daily (BID) and CC‐223 was administered orally QD. Rituximab was administered on day 8 of cycle 1, day 1 of cycles 2–6, and day 1 of every third cycle thereafter. Patients in arm A received CC‐122 and CC‐223 with or without rituximab (starting at CC‐122 2 mg QD and CC‐223 20 mg QD), patients in arm B received CC‐122 plus CC‐292 with or without rituximab (starting at CC‐122 2 mg QD and CC‐292 500 mg BID), patients in arm C were treated with CC‐223 and CC‐292 (starting at CC‐223 20 mg QD and CC‐292 500 mg BID), and those in arm D received CC‐122 plus rituximab (starting at CC‐122 2 mg QD). In arm D, a CC‐122 3 mg formulated capsule was introduced with the same strength as CC‐122 3 mg AIC. Each dose level was cleared before the next was started. If unacceptable toxicity occurred at the initial dose level, dose reductions for CC‐122 (1.5 mg QD and 1 mg QD) and CC‐223 (15 mg QD) were allowed; no starting dose reductions for CC‐292 were planned. For arm A, the Safety Review Committee (SRC) determined which of the two drugs in the doublet to reduce. For arms B and D, the CC‐122 dose was reduced and for arm C, the CC‐223 dose was reduced. Assignment of patients to study arms was at the discretion of the investigator and based on slot availability per the study design.
Patients who experienced dose‐limiting toxicity (DLT) after receiving ≥1 dose of study treatment or those who received ≥80% of planned doses of CC‐122, CC‐223, CC‐292, and rituximab during cycle 1 without experiencing a DLT were considered DLT‐evaluable. If zero out of ≥3 or ≤1 out of six evaluable patients in a cohort experienced a DLT during cycle 1 in parallel dose cohorts, then dose escalation could occur. DLTs are defined in the Supplementary Materials; individual investigators performed response assessments and determined DLTs. The NTD was defined as the dose level at which ≥2 of six evaluable patients in a cohort experienced a DLT during cycle 1. […] During cycle 1, any adverse event (AE) that led to dose reduction was considered a DLT. Patients could resume CC‐122 at a reduced dose only if they recovered to grade ≤1 within 14 days of dose interruption; two dose reductions were allowed before the patient was withdrawn from the study. Dose reductions were permitted for CC‐122, CC‐223, and CC‐292; no dose reductions were allowed for rituximab, but treatment could be discontinued at the discretion of the investigator. […] For arms A, B, and D, CC‐122 dosing was modified to the intermittent 5/7‐day schedule based on SRC review and escalated until the MTD/RP2D was established. Treatment was given until disease progression, unacceptable toxicity, or patient/physician decision to withdraw consent.
^aTreatment duration defined as date of last derived dose – date of first dose + 1.
^bDefined as the ratio of actual dose received to planned dose over the treatment period.

DOHH2 cells = experiment: DOHH2 xenograft model; format: in vivo; conditions: DLBCL xenograft model (DOHH2, SCID mice); avadomide oral once daily, rituximab 1 mg/kg once weekly
Experimental: Female severe combined immunodeficiency (SCID) mice (CB17/Icr-Prkdcscid, Charles River) were 8 weeks old, with body weights ranging from 15.0 g to 23.2 g on day 1 of these studies. Each SCID mouse was injected subcutaneously in the right flank with 5 × 10^6 DOHH2 cells (0.2-mL cell suspension). Tumors were calipered in 2 dimensions to monitor growth as their mean volume approached 100 to 150 mm^3. Fourteen days after tumor cell implantation, mice were sorted into treatment groups of 10 mice per group. Tumors were calipered twice weekly during the study. Avadomide was suspended in 0.5% carboxymethyl cellulose (0.25% Tween-80 in deionized water). Vehicle control and avadomide were each administered via oral gavage once daily; rituximab (1 mg/kg) was administered once weekly for the duration of the study.
FIGURE S1 Change in the percentage of apoptotic cells over time (A) and in vivo tumor growth response after combination treatment with avadomide and rituximab (B). Natural killer cell activity against DOHH or RL FL cell lines determined by flow cytometry is shown (A). Female CB17 severe combined immunodeficiency mice implanted subcutaneously with DOHH2 cells were administered vehicle and avadomide once daily and rituximab given 1 mg/kg once weekly (B). SEM, standard error of the mean; TGI, tumor growth inhibition. mm^3

[1] = Overall (all arms with the drug)

lisocabtagene maraleucel
estimated 12‐month PFS rate (R/R DLBCL; patients with a complete response): 65%

loncastuximab tesirine [reference compound]
CR rates (R/R DLBCL; monotherapy, third‐line setting): 24%

rituximab [reference compound]
≥1 dose interruption (patients with R/R DLBCL; Arm A (Avadomide + CC-223 ± R)): 9 (47.4) n (%) | ≥1 dose interruption: Adverse event (patients with R/R DLBCL; Arm A (Avadomide + CC-223 ± R)): 6 (31.6) n (%) | ≥1 dose interruption: Other (patients with R/R DLBCL; Arm A (Avadomide + CC-223 ± R)): 5 (26.3) n (%) | ≥1 dose interruption (patients with R/R DLBCL; Arm B (Avadomide + CC-292 ± R)): 2 (16.7) n (%) | ≥1 dose interruption: Adverse event (patients with R/R DLBCL; Arm B (Avadomide + CC-292 ± R)): 2 (16.7) n (%) | ≥1 dose interruption: Other (patients with R/R DLBCL; Arm B (Avadomide + CC-292 ± R)): 1 (8.3) n (%) | ≥1 dose interruption (patients with R/R DLBCL; Arm D (Avadomide + R)): 2 (6.7) n (%) | ≥1 dose interruption: Adverse event (patients with R/R DLBCL; Arm D (Avadomide + R)): 1 (3.3) n (%) | ≥1 dose interruption: Other (patients with R/R DLBCL; Arm D (Avadomide + R)): 2 (6.7) n (%) | ≥1 dose interruption (patients with R/R DLBCL; [1]): 13 (21.3) n (%) | ≥1 dose interruption: Adverse event (patients with R/R DLBCL; [1]): 9 (14.8) n (%) | ≥1 dose interruption: Other (patients with R/R DLBCL; [1]): 8 (13.1) n (%) | tumor growth inhibition (TGI) (DOHH2 cells): 19%

tisagenlecleucel
36‐month PFS (R/R DLBCL; patients with a complete response at 3 months): 70%
